Patent US20230312724A1 (KADMON, published 2023)
Residue numbers refer to the chain shown, from its start. Blank lines part the entries; values can stand above or below the binder they belong to.

Assays:
[1] = biological target: T1, mB7-H4 (soluble mouse B7-H4, construct not named) (mouse, UniProt Q7TSP5 25-257, limits assumed); assay: ELISA, mB7-H4
T1 sequence: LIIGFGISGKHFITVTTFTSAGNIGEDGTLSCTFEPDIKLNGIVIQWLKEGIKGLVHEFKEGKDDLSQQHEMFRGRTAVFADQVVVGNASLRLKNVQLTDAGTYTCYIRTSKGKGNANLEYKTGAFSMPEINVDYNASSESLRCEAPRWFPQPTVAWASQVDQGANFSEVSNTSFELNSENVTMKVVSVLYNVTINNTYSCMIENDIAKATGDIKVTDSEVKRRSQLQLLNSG
Protocol: (§1) About 1-2 μg/ml of human or mouse B7-H4-Fc (or his-tagged) was immobilized on ELISA plates (Immuno 2HB, Thermo scientific, cat #3455) at 4° C. overnight. After blocking the plates with 3% PBS+milk, serial diluted antibodies were added to the blocked plates and incubated at RT for 1-1.5 h. After washing the plates with PBS-T (0.05%), horse radish peroxidase (HRP)-conjugated antibody targeting the hFab was added to the plate. Signals were developed by adding 3,3′,5,5′-Tetramethylbenzidine (TMB (followed 1N of H₂SO₄ to stop the reaction. The OD at 450 nm was read by ELISA plate reader (Infinite M1000 from TECAN). GraphPad from Prism was used to plot OD450 vs. antibody concentration curve and to calculate the EC50 values.

[2] = biological target: T2, hB7-H4 (soluble human B7-H4, construct not named) (human, UniProt Q7Z7D3 25-259, limits assumed); assay: ELISA, hB7-H4
T2 construct: also called soluble hB7-H4
T2 sequence: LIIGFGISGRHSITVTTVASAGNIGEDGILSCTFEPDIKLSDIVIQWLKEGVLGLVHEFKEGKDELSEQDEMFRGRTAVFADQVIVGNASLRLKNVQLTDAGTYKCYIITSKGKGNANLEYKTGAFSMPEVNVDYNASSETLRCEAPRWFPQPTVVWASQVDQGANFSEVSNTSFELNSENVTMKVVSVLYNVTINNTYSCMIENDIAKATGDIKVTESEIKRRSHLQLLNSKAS
Protocol: as §1

[3] = biological target: T3, human B7-H4-Fc (human); assay: SPR (Biacore)
T3 construct: also called hB7-H4-Fc; hB7-H4 Fc
Protocol: (§2) Surface plasmon resonance experiments were performed using a Biacore T200 instrument equipped with CM5 sensor chips. The system was equilibrated in running buffer HBS-EP pH 7.4. The ligands were immobilized using amine-coupling chemistry. The surfaces of flow cells one through four were activated for 5 min using an amine coupling kit at a flow rate of […]. The ligands (human B7-H4-Fc, human B7-H4-hism and mouse B7-H4-Fc; at a concentration of 5 μg/ml in 10 mM sodium acetate, pH 5.0) were immobilized at a density of 50-100 RU on flow cell 2, 3, 4 respectively. Flow cell 1 was left blank to serve as a reference surface. All flow cell surfaces were blocked with a 5 min injection of 1 M ethanolamine, pH 8.0. To collect kinetic binding data, the respective analyte (diluted in 1×HBS-EP buffer, pH 7.4) was injected over the four flow cells at concentrations of 100 nM to 0.1 nM at a flow rate of […] and at a temperature of 25° C. The protein complex was allowed to associate and dissociate for 180 seconds and 1000 or 1200 seconds, respectively. The surfaces were regenerated with a 30 second injection of 1.5 M NaCl/0.05 M NaOH. The data were fit to a simple 1:1 interaction model using the Langmuir fit option available within the Biaevaluaton software
(§3) The kinetics for binding of the different antibodies to their targets were examined using Biacore analysis.

[4] = biological target: T4, human B7-H4-his (human, UniProt Q7Z7D3 25-259); assay: SPR (Biacore)
T4 construct: also called hB7-H4-his; hB7-H4 his; not shown: his tag
T4 sequence: T2 sequence
Protocol: as §2, §3

[5] = biological target: T5, human B7-H4 expressed on cells (human, UniProt Q7Z7D3 25-282); assay: flow cytometry, SK-BR-3 cells
T5 construct: Transfected CHO cells or tumor cell lines that carry hB7-H4; also called cellular hB7-H4
T5 sequence: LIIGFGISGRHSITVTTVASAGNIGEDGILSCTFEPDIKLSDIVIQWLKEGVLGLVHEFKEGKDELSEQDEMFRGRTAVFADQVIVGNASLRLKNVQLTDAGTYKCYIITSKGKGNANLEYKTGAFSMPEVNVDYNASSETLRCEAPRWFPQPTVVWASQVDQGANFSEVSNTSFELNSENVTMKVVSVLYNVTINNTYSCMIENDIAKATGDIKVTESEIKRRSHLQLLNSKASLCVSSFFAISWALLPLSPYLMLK
Protocol: (§4) Cells were harvested, washed once, and then re-suspended to the concentration of 1×10⁶ cells/ml in ice cold FACS Buffer. 25 μl of cell suspension was added to each well of a 96-well round-bottom microliter plate. Serially diluted antibodies or fusion proteins were added to each well and incubated for 1 hour at 4° C. Cells were washed three times by centrifugation at 1500 rpm for 5 minutes, and then stained with secondary antibody (1:200 dilution) for 30 min at 4° C. in the dark. Cells were washed once, re-suspended in 100 μl PBS buffer and then analyzed using Guava Flow Cytometry EasyCyte system.

[6] = biological target: T6, mouse B7-H4-his (mouse, UniProt Q7TSP5 25-257); assay: SPR (Biacore)
T6 construct: also called mB7-H4-his; mB7-H4-His; not shown: his tag
T6 sequence: T1 sequence

[7] = biological target: T7, mouse B7-H4-Fc (mouse; human); assay: SPR (Biacore)
T7 construct: also called mB7-H4-Fc; mB7-H4-hFc

[8] = biological target: T1, mB7-H4 (soluble mouse B7-H4, construct …); assay: SPR (Biacore)
Protocol: as §2

[9] = biological target: T2, hB7-H4 (soluble human B7-H4, construct …); assay: SPR (Biacore)
Protocol: as §2

[10] = biological target: T8, mouse B7-H4 expressed on cells (mouse, UniProt Q7TSP5 25-257); assay: flow cytometry, mB7-H4/CT26 cells
T8 construct: also called cellular mB7-H4; mB7-H4/CT26
T8 sequence: T1 sequence
Protocol: as §4

[11] = biological target: T7, mouse B7-H4-Fc; assay: ELISA, coated mB7-H4-Fc
Protocol: as §1

[12] = biological target: T9, IgV domain of mouse B7-H4-Fc (mouse; human); assay: ELISA, coated mB7-H4 IgV domain
T9 construct: also called mB7-H4 IgV domain
Protocol: as §1

[13] = biological target: T10, IgV domain of human B7-H4-Fc (human); assay: ELISA, coated hB7-H4 IgV domain
T10 construct: also called hB7-H4 IgV domain
Protocol: as §1

[14] = biological target: T3, human B7-H4-Fc; assay: ELISA, coated hB7-H4-Fc
Protocol: as §1

T3 sequence (chain, as listed by the source): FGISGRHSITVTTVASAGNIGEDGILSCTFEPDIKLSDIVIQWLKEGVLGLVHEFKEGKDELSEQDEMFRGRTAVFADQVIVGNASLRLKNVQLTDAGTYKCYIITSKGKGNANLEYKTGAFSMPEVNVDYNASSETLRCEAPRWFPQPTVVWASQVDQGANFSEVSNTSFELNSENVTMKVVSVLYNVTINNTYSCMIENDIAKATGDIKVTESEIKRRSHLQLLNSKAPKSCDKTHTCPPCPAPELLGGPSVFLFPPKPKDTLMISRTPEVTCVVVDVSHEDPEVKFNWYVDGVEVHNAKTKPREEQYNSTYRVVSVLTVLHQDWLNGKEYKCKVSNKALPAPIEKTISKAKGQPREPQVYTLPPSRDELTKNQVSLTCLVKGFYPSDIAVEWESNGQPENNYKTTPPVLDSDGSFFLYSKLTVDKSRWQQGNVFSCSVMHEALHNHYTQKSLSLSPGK
T10 sequence (chain, as listed by the source): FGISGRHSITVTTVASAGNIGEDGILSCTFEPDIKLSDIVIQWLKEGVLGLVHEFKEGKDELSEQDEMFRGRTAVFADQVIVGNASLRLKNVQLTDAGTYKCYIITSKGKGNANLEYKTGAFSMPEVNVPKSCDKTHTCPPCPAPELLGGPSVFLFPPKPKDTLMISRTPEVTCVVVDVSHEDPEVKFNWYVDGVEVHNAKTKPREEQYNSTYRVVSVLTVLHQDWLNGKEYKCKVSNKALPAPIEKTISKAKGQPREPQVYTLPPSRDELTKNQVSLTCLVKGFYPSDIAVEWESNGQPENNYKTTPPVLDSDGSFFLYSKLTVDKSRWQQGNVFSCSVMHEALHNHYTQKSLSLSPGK
T9 sequence (chain, as listed by the source): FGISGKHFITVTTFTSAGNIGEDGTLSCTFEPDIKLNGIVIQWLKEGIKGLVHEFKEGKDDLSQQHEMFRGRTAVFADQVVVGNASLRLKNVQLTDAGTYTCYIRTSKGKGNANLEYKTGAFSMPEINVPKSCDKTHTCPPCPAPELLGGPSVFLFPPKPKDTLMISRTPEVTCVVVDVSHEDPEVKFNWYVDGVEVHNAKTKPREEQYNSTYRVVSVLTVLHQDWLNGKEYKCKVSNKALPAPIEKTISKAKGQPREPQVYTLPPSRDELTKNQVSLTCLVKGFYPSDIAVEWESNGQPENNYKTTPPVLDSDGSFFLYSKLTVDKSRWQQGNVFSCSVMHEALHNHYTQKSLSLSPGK
T7 sequence (chain, as listed by the source): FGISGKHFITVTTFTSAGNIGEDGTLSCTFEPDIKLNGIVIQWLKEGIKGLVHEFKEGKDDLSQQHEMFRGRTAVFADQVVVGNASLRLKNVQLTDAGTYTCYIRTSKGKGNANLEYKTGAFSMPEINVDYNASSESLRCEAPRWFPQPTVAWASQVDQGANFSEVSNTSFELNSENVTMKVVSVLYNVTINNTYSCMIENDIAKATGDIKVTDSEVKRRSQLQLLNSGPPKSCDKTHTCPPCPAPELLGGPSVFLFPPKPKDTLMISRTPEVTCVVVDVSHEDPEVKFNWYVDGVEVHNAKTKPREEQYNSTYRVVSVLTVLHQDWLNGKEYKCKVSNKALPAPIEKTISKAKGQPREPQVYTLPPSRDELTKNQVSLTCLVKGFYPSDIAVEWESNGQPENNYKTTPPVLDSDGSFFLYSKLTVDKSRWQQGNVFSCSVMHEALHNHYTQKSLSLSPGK

EC50 [1]: 0.104 nM
EC50 [2]: 0.18 nM
Kd [3]: 1.8 nM
Kd [4]: 0.85 nM
EC50 [5]: 126 nM
Kd [6]: 1.52 nM
Kd [7]: 0.642 nM
Kd [8]: 4.78 nM
Kd [9]: 5.97 nM
EC50 [10]: 122 nM
B1: 9D11/9D11 (antibody, human IgG1, V domains shown)
VH: QVQLVQSGAEVKKPGASVKVSCKASGYTFTSYGISWVRQAPGQGLEWVGVINPNGGTTTYAQTFQGRVTMTRDTSTSTVYMELSSLRSEDTAVYYCARTGYSSGWAFDYWGRGTLVTVSS
VL: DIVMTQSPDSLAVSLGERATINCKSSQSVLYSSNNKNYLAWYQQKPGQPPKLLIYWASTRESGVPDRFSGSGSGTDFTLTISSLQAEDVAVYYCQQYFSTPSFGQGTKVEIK

EC50 [1]: 0.162 nM
EC50 [2]: 0.261 nM
binding result [11]: binds
EC50 [5]: 22.5 nM
Kd [8]: 8.46 nM
Kd [9]: 10.6 nM
EC50 [10]: 45.3 nM
B2: 9D11/67G3 (antibody, human IgG1, V domains shown)
VH: B1 VH
VL: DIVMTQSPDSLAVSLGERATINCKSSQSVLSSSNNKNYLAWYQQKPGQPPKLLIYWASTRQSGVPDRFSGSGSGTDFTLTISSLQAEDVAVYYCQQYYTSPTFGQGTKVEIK
notes: 9D11 VH with 67G3 VL

EC50 [1]: 0.105 nM
EC50 [2]: 0.1 nM
EC50 [5]: 24 nM
Kd [8]: 6.08 nM
Kd [9]: 7.09 nM
EC50 [10]: 54.3 nM
B3: 9D11/67H9 (antibody, human IgG1, V domains shown)
VH: B1 VH
VL: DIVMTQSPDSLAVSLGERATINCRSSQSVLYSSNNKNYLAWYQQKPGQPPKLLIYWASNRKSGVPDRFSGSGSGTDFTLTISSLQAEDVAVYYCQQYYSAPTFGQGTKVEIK
notes: 9D11 VH with 67H9 VL

EC50 [1]: 0.082 nM
EC50 [2]: 0.115 nM
binding result [11]: binds
EC50 [5]: 9.2 nM
Kd [8]: 2.8 nM
Kd [9]: 15 nM
EC50 [10]: 45.7 nM
B4: 9D11/67C6 (antibody, human IgG1, V domains shown)
VH: B1 VH
VL: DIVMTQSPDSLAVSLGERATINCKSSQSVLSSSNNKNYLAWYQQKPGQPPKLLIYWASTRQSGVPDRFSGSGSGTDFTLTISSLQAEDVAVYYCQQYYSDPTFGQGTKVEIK
notes: 9D11 VH with 67C6 VL

Kd [4]: 194 nM
binding result [11]: binds
Kd [6]: 29.2 nM
B5: 24F4/24F4 (antibody, human IgG1, V domains shown)
VH: QVQLVQSGAEVKKPGSSVKVSCKASGYRFTGDYIHWVRQAPGQGLEWMGWMNPNSGNTGLAQKFQGRVTITADESTSTAYMELSSLRSEDTAVYYCARVLGFSGGMDVWGQGTTVTVSS
VL: DIVMTQSPLSLPVTPGEPASISCRSSQSLLHSNGYNYLDWYLQKPGQSPQLLIYAASSLRSGVPDRFSGSGSGTDFTLKISRVEAEDVGVYYCMQGTHWPPTFGQGTKLEIK

Kd [3]: 15 nM
Kd [4]: 16.6 nM
binding result [12]: no binding (tested: 20 nM)
binding result [13]: no binding (tested: 20 nM)
EC50 (read off the curve) [11]: ~0.1 nM
Kd [6]: 15 nM
Kd [7]: 11.9 nM
EC50 (read off the curve) [14]: ~0.1 nM
B6: 5F4/5F4 (antibody, human IgG1, V domains shown)
VH: EVQLLESGGGLVKPGGSLRLSCAASGFTFSSYAMHWVRQAPGKGLEWVSAIGGSGRTTYYADSVKGRFTISRDDSKNTLYLQMNSLKTEDTAVYYCARERGYSYGQIDYWGQGTLVTVSS
VL: B5 VL with R60Q, T97A, P101L, L109V

Kd [3]: 13.7 nM
Kd [4]: 7.91 nM
binding result [12]: no binding (tested: 20 nM)
binding result [13]: no binding (tested: 20 nM)
Kd [6]: 12.4 nM
Kd [7]: 10.6 nM
B7: 9E1/9E1 (antibody, V domains shown)
VH: QVQLVQSGAEVKKPGASVKVSCKASGYTFTGYYLHWVRQAPGQGLEWMGWINPNSGGTNSAQRFQGRVTMTRDTSTSTVYMELSSLRSEDTAVYYCARVRGYEGGMDVWGQGTTVTVSS
VL: not shown

Kd [3]: 4.26 nM
Kd [4]: 5.17 nM
Kd [6]: 6.17 nM
Kd [7]: 3.55 nM
B8: 15B11/15B11 (antibody, V domains shown)
VH: QVQLVQSGAEVKKPGASVKVSCKASGYTFTGYYIHWVRQAPGQGLEWMGWMNPHSGHTGYAQNLQGRVTMTRDTSTSTVYMELSSLRSEDTAVYYCARVKVTTGFDYWGQGTLVTVSS
VL: not shown

Kd [4]: 5.3 nM
binding result [11]: binds
Kd [6]: 3.4 nM
B9: 24B6/24B6 (antibody, human IgG1, V domains shown)
VH: QVQLVQSGAEVKKPGASVKVSCKASGYTFTGYYMHWVRQAPGQGLEWIGWMNPNSGDTGYAQKFQGRVTMTRDTSTSTVYMELSSLRSEDTAVYYCAKVGAYGGMDVWGQGTTVTVSS
VL: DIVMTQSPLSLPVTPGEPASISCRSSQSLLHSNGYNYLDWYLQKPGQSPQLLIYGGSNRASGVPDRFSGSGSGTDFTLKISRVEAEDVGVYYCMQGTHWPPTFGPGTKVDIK

Kd [4]: 6.05 nM
binding result [11]: binds
Kd [6]: 6.38 nM
B10: 30G4/30G4 (antibody, human IgG1, V domains shown)
VH: B9 VH with T30S, G31S, I48M, K98R, G100P, A101E, Y102T
VL: B5 VL with A55G, R60H, L109V

Kd [3]: 11.7 nM
Kd [4]: 10 nM
binding result [12]: no binding (tested: 20 nM)
binding result [13]: no binding (tested: 20 nM)
EC50 (read off the curve) [11]: ~0.1 nM
Kd [6]: 9.09 nM
Kd [7]: 14.1 nM
EC50 (read off the curve) [14]: ~0.1 nM
B11: 5E4/5E4 (antibody, human IgG1, V domains shown)
VH: QVQLVQSGAEVKKPGASVKVSCKASGYTFTSYDINWVRQAPGQGLEWMGWMNPNSGNTGYAQKFQGRVTMTRDTSTSTVYMELSSLRSEDTAVYYCARGELWFGEFDYYYYYGMDVWGQGTTVTVSS
VL: DIQMTQSPSSLSASVGDRVTITCRASQSISSYLNWYQQKPGKAPKLLIYGASSLQSGVPSRFSGSGSGTDFTLTISSLQPEDFATYYCQQADRIPFTFGRGTKVEIK

Kd [3]: 12.1 nM
Kd [4]: 5.19 nM
binding result [12]: no binding (tested: 20 nM)
binding result [13]: no binding (tested: 20 nM)
Kd [6]: 7.83 nM
Kd [7]: 13.1 nM
B12: 5G6/5G6 (antibody, human IgG1, V domains shown)
VH: QVQLVQSGAEVKKPGASVKVSCKASGYTFTSYYMHWVRQAPGQGLEWLGWVNPNTGTTRFAQKFQGRVTMTRDTSTSTVYMELSSLRSEDTAVYYCARDANYYYGMDVWGQGTMVTVSS
VL: DIVMTQSPDSLAVSLGERATINCKSSQSVLYSSNNKNYLAWYQQKPGQPPKLLIYWASTRESGVPDRFSGSGSGTDFTLTISSLQAEDVATYYCQKYNSALPITFGQGTRLEIK
